Results as given in US20200347144A1 (SHANGHAI HYAMAB BIOTECH, published 2020).

T1: mouse 4-1BB protein (extracellular domain) (mouse, UniProt P20334 24-187)
T1 construct: extracellular domain; also called mouse 4-1BB-his; mouse 4-1BB-hFc protein
T1 sequence (looked up): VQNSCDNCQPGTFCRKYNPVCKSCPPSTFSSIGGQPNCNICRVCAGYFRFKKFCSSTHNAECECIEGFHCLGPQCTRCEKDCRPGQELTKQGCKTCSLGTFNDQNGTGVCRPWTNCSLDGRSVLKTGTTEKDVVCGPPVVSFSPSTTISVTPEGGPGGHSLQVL


Experiments:
[1] = target: T2, human 4-1BB, full length, on transfected cells (human, UniProt Q07011 24-255); assay: cell-based or functional assay
[2] = target: T1, mouse 4-1BB protein (extracellular …); assay: ELISA, coated mouse 4-1BB; Ab 0.08 ug/ml
Description: (§1) The purified immunogen A (4-1BB-hFc), monkey 4-1BB-his, and mouse 4-1BB-his obtained in Example 1 [for the preparation method, see step 1 of Example 1, preparation of immunogen A], of which the extracellular domain of monkey-derived 4-1BB protein (purchased from ACRO biosystems), the extracellular domain of mouse 4-1BB protein (purchased from sino biological) or other immune detection point proteins respectively were diluted with PBS to a final concentration of 1.0 μg/mL, then added with […] per well to 96-well ELISA plate. It was sealed with plastic film and incubated at 4° C. overnight. The next day, the plate was washed twice with the plate-washing solution [PBS containing 0.01% (v/v) Tween20] and blocking solution [PBS containing 0.01% (v/v) Tween 20 and 1% (v/v) BSA] was added and blocked at room temperature for 2 hours. The blocking solution was discarded and 100 μl of the purified 4-1BB antibody obtained in Example 2 was added per well. After incubated at 37° C. for 2 hours, the plate was washed 3 times with a plate-washing solution [PBS containing 0.01% (v/v) Tween20]. A secondary antibody (purchased from Sigma) labeled with HRP (horseradish peroxidase) was added, and after incubated at 37° C. for 2 hours, the plate was washed 3 times with a plate-washing solution [PBS containing 0.01% (v/v) Tween20]. 100 μl of TMB substrate was added per well. After incubated for 30 minutes at room temperature, 100 μl of stop buffer (1.0N HCl) was added per well. The A450 nm values were read using an ELISA plate reader (SpectraMax 384plus, Molecular Device).

[3] = target: T1, mouse 4-1BB protein (extracellular …); assay: ELISA, coated mouse 4-1BB; Ab 0.0006 ug/ml
Description: as §1

[4] = target: T3, his-tagged human 4-1BB protein antigen (human, UniProt Q07011 24-186); assay: SPR (Biacore T200), antibody captured on anti-human Fc, his-tagged human 4-1BB as analyte
T3 construct: not shown: his tag
From the text: The Biacore T200 instrument (purchased) was used to determine the affinity constant. The specific operation and method were based on the instrument manual and the detailed method provided by the manufacturer. Sensors labeled with anti-human Fc were combined with anti-4-1BB fully human antibodies to detect the binding and dissociation of five different gradients of his-tagged human 4-1BB protein antigen. Then software was used to fit the dissociation constant and the binding constant. The affinity constant is the ratio of the dissociation constant and the binding constant.

[5] = target: T2, human 4-1BB, full length, on …; assay: FACS blocking assay on CHOK1-h4-1BB cells: antibody titrated against his-muCD8a-4-1BBL, bound ligand detected with Alexa 488 anti-mouse CD8a; inhibition rate (%) relative to human IgG
Description: It was washed three times with FACS buffer by centrifugation, and 100 μl of fixative [4% (v/v) paraformaldehyde] per well was added to suspend cells, and it was washed twice with FACS buffer by centrifugation after 10 minutes. The cells were suspended with 100 microliters of FACS buffer, and the results were detected and analyzed with FACS (FACS Calibur, purchased from BD). […] The IgG control is human IgG, and the data in the table is the inhibition rate of the ligand binding by the fully human 4-1BB antibody relative to the control group (human IgG).

T2 sequence (Q07011 24-255): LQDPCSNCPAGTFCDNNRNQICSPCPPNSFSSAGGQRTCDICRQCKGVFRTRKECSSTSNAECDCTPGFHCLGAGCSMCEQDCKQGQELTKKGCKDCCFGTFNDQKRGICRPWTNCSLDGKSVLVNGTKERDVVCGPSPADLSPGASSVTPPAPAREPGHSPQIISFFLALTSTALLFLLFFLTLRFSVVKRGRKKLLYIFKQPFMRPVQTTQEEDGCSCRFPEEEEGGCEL

| Binder | NFκB luciferase reporter, 4-1BB+ HEK293; EC50; cross-linked [1] [nM] | NFκB luciferase reporter, 4-1BB+ HEK293; fluorescence multiple vs human IgG; cross-linked; Ab 0.00013 ug/ml [1] [fold] | NFκB luciferase reporter, 4-1BB+ HEK293; fluorescence multiple vs human IgG; cross-linked; Ab 0.00064 ug/ml [1] [fold] | NFκB luciferase reporter, 4-1BB+ HEK293; fluorescence multiple vs human IgG; cross-linked; Ab 0.0032 ug/ml [1] [fold] | NFκB luciferase reporter, 4-1BB+ HEK293; fluorescence multiple vs human IgG; cross-linked; Ab 0.016 ug/ml [1] [fold] | NFκB luciferase reporter, 4-1BB+ HEK293; fluorescence multiple vs human IgG; cross-linked; Ab 0.08 ug/ml [1] [fold] | NFκB luciferase reporter, 4-1BB+ HEK293; fluorescence multiple vs human IgG; cross-linked; Ab 0.4 ug/ml [1] [fold] | NFκB luciferase reporter, 4-1BB+ HEK293; fluorescence multiple vs human IgG; cross-linked; Ab 2 ug/ml [1] [fold] | NFκB luciferase reporter, 4-1BB+ HEK293; fluorescence multiple vs human IgG; cross-linked; Ab 10 ug/ml [1] [fold] | NFκB luciferase reporter, 4-1BB+ HEK293; fluorescence multiple vs human IgG; non-cross-linked; Ab 0.00013 ug/ml [1] [fold] | NFκB luciferase reporter, 4-1BB+ HEK293; fluorescence multiple vs human IgG; non-cross-linked; Ab 0.00064 ug/ml [1] [fold] | NFκB luciferase reporter, 4-1BB+ HEK293; fluorescence multiple vs human IgG; non-cross-linked; Ab 0.0032 ug/ml [1] [fold] | NFκB luciferase reporter, 4-1BB+ HEK293; fluorescence multiple vs human IgG; non-cross-linked; Ab 0.016 ug/ml [1] [fold] | NFκB luciferase reporter, 4-1BB+ HEK293; fluorescence multiple vs human IgG; non-cross-linked; Ab 0.08 ug/ml [1] [fold] | NFκB luciferase reporter, 4-1BB+ HEK293; fluorescence multiple vs human IgG; non-cross-linked; Ab 0.4 ug/ml [1] [fold] | NFκB luciferase reporter, 4-1BB+ HEK293; fluorescence multiple vs human IgG; non-cross-linked; Ab 2 ug/ml [1] [fold] | NFκB luciferase reporter, 4-1BB+ HEK293; fluorescence multiple vs human IgG; non-cross-linked; Ab 10 ug/ml [1] [fold] | OD450 nm [2] [OD450 nm] | OD450 nm [3] [OD450 nm] | Kd [4] [nM] | also measured |
| --- | --- | --- | --- | --- | --- | --- | --- | --- | --- | --- | --- | --- | --- | --- | --- | --- | --- | --- | --- | --- | --- |
| 57B3D10 (antibody, V domains shown, also called 4-1BB fully human antibody 57B3D10) VH: QVQLQESGPGLVKPSETLSLTCTVSGGSISSYYWSWIRQPPGKGLEWIGYIYYSGSTNYNPSLKSRVTISVDTSKSQFSLKLTSVTAADTAVYYCAKDSDYYGSGSYSYWYFDLWGRGTLVTVSS VL: EIVMTQSPATLSVSPGERATLSCRASQSVSSNLAWYQQKPGQAPRLLIYGASTRAPGIPARFSGSGSGTEFTLTISSLQSEDFAVYYCQQYNNWPLTFGGGTKVEIK | 0.94 | 0.9 | 1.15 | 1.1 | 2.35 | 3.3 | 3.6 | 5.55 | 4.3 | 0.95 | 0.9 | 1.4 | 1.4 | 2.7 | 3.5 | 5 | 7.5 | 0.14 | 0.05 | 21.5 | koff [4]: 0.0124 s⁻¹; kon [4]: 574000 M⁻¹ s⁻¹; IC50 (read off the curve) [5]: ~2 µg/mL |
| 118F3A2 (antibody, V domains shown) VH: QVQLQQWGAGLLKPSETLSLTCGVYGGSFSTNYWSWIRQSPGKGLEWIGEINHSGNTEYNPSLKSRLTISIDTSKNQFSLKLTSVTAADTAVYYCARMGYHSPSFDFWGQGVLVTVSS VL: KIVMTQSPATLSVSPGERATLPCRVSQGIGSNLAWYQQKPGQAPRLLIYGASTRATGVPARFSGSGSGSEFTLTISSLQSEDLALYYCQQYNNWPLTFGGGTKVEIK |  |  |  |  |  |  |  |  |  |  |  |  |  |  |  |  |  | 0.12 | 0.05 |  |  |
| 113F6C6 (antibody, V domains shown, also called 4-1BB fully human antibody 113F6C6; 113F6F6) VH: QVQLVESGGGVVQPGRSLRLSCAASGLTFSSYGMHWVRQAPGKGLEWVAVIWYDGSNKYYADSVKGRFTISRDNSKNTLYLQMNSLRAEDTAVYYCAREEVLWFGELSYNYYYGMDVWGQGTTVTVSS VL: DIQMTQSPSSLSASVGDRVTITCRASQGISNYLAWYQQKPGKVPKLLIYAASTLQSGVPSRFSGSGSGTDFTLTISSLQPEDVATYYCQKYNSVPLTFGGGTKVEIK | 0.41 | 0.7 | 1.3 | 2.15 | 6.55 | 14.6 | 14.8 | 17.1 | 13.6 | 1.25 | 0.95 | 1.3 | 4.35 | 12.7 | 12.1 | 23 | 22.1 | 0.05 | 0.05 | 17.6 | NFκB luciferase reporter, 4-1BB+ HEK293; EC50; non-cross-linked [1]: 3.46 nM; koff [4]: 0.03 s⁻¹; kon [4]: 1.68e+06 M⁻¹ s⁻¹ |
| 172E3E3 (antibody, V domains shown) VH: QVQLQESGPGLVKPSGTLSLTCAVSGGSISSSNWWSWVRQPPGKGLEWIGEIYHSGSTNYNPSLKSRVTISVDKSKNQLSLNLSSVTAADTAVYYCARQGGVAGTLYWYFDLWGRGTLVTVSS VL: DIVMTQSPLSLPVTPGEPASISCRSSQGLLHSNGYNYLDWYLQKPGQSPQLLIYLGSNRASGVPDRFIGSGSGTDFTLKIRRVEAEDVGVYYCMQVLQTPWTFGQGTKVEIK |  |  |  |  |  |  |  |  |  |  |  |  |  |  |  |  |  | 0.05 | 0.05 |  |  |
| 170D7F2 (antibody, V domains shown) VH: QVQLVQSGAEVKKPGASVKVSCKASGYTFTSYDINWVRQATGQGLEWMGWMNPNSGNTGYAQKFQGRVTMTRNTSISTAYMELSSLRSEDTAVYYCARETGPFDYWGQGTLVTVSS VL: DIQMTQSPSSLSASVGDRVTITCRASQRINNYLNWYQQKPGKAPKLLIYGASSLQSGVPSRFSGSGSGTDFTLTISSLQPEDFATYYCQQSYSTPFTFGPGTKVDIK |  |  |  |  |  |  |  |  |  |  |  |  |  |  |  |  |  | 0.1 | 0.05 |  |  |
